Patent EP4714976A1 (Sunshine Lake Pharma Co., Ltd., dated 2026)

T1: FGFR4 (acro) (UniProt P22455 22-369)
T1 sequence (looked up): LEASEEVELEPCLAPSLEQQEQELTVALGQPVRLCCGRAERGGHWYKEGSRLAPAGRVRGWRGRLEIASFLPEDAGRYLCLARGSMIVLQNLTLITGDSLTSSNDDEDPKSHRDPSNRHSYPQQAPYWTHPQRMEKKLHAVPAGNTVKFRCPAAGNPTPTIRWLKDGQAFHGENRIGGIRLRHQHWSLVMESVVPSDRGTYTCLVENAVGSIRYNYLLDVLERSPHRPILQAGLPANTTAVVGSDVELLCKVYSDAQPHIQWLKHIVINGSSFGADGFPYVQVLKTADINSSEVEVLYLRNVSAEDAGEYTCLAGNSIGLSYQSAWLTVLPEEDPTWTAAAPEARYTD


Columns and labels:
FGFR4 (acro) [1] = biological target: T1, FGFR4 (acro); test: ELISA
FGFR2c (acro) [2] = biological target: T2, FGFR2c (acro) (UniProt P21802 22-377); test: ELISA
T2 sequence (P21802 22-377): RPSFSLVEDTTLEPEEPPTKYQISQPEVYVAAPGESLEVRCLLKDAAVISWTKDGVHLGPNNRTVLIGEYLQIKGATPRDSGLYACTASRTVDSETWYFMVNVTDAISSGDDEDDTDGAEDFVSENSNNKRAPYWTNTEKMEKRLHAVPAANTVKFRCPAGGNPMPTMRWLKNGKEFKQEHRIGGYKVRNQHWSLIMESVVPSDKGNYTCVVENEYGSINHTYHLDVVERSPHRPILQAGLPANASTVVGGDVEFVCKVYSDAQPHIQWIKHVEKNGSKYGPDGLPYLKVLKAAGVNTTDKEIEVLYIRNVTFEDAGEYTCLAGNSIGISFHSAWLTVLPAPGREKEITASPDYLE

[3] = biological target: T3, recombinant cynomolgus monkey FGFR2b (cynomolgus monkey); test: ELISA, antibody 1ug/mL
T3 construct: extracellular domain; bought; also called cynomolgus macaque FGFR2b

[4] = biological target: T4, human FGFR2b (Kaixia Biotechnology, catalog number FGR-HM1BB) (human, UniProt P21802-3 22-378); test: ELISA, FGFR2b coated at 1 µg/ml
T4 construct: extracellular domain; bought; also called hFGFR2b; human FGFR2b protein
T4 sequence (P21802 other isoform, or with tags, fused parts or gaps): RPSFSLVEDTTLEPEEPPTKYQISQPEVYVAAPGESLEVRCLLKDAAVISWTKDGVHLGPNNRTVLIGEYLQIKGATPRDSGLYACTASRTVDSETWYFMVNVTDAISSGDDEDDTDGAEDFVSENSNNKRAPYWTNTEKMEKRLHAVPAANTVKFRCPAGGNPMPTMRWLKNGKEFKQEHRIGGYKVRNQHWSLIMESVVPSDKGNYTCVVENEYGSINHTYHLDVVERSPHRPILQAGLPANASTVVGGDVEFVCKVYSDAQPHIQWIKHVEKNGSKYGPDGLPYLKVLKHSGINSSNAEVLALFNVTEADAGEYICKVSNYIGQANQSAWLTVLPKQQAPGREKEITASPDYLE

FGFR2b on KATO III cells = biological target: T5, FGFR2b on KATO III cells (human, UniProt P21802-3 22-822); test: flow cytometry, KATO III cells
T5 construct: whole, on cells; also called KATO III cells that overexpress FGFR2b
T5 sequence (P21802 other isoform, or with tags, fused parts or gaps): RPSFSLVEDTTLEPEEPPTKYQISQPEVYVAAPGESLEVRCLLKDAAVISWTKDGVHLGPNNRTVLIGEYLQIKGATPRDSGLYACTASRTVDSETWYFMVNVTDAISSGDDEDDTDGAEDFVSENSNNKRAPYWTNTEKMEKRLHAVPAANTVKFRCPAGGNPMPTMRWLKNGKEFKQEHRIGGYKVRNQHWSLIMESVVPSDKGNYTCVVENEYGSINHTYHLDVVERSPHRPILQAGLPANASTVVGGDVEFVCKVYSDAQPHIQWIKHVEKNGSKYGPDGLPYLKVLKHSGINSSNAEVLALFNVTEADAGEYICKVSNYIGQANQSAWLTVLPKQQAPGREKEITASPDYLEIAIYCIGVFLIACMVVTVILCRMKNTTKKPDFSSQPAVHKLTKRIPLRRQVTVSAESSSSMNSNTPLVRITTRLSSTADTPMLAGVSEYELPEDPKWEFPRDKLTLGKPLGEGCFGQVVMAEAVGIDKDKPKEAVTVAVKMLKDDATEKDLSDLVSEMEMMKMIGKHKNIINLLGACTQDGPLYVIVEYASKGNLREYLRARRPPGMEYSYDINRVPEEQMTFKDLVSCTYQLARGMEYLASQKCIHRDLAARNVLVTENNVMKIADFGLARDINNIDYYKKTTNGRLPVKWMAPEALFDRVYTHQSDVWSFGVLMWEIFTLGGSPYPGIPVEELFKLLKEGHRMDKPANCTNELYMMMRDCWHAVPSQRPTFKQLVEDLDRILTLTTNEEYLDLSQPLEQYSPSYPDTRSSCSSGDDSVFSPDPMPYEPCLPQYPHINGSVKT

[5] = biological target: T4, human FGFR2b (Kaixia Biotechnology, …); test: BLI, antibody on AHC2 sensor
FGFR2c (acro) [6] = biological target: T2, FGFR2c (acro); test: ELISA, antibody 10 µg/mL
FGFR4 (acro) [7] = biological target: T1, FGFR4 (acro); test: ELISA, antibody 10 µg/mL

Binder | binding result (FGFR4 (acro) [1]) | binding result (FGFR2c (acro) [2]) | OD (450 nm) value [3] | EC50 [4] | EC50 (FGFR2b on KATO III cells) | Kd [5] | koff [5] | kon [5] | OD (450 nm) value (FGFR2c (acro) [6]) | OD (450 nm) value (FGFR4 (acro) [7])
3E7 scFv-Fc (Fc fusion, scFv-Fc dimer) QVQLQQSGAELVKPGASVKMSCKASGYTFTIYNIHWVRQTPGQGLEWIGLIYPDNGDTSYNQKFKAKATLTADKSSSTAYMQLSSLTSEDSAVYYCARGGFDYWGQGTTLTVSSGGGGSGGGGSGGGGSNIVMTQSQKFMSTSVGDRVSVTCKASQNVGTNVAWYQQKPGQSPKALIYSASYRYSGVPDRFTGSGSGTDFTLTISGVQAEDLADYYCQQHYNTPYTFGGGTKLEIKESKYGPPCPPCPAPEAAGGPSVFLFPPKPKDTLMISRTPEVTCVVVDVSQEDPEVQFNWYVDGVEVHNAKTKPREEQFNSTYRVVSVLTVLHQDWLNGKEYKCKVSNKGLPSSIEKTISKAKGQPREPQVYTLPPSQEEMTKNQVSLTCLVKGFYPSDIAVEWESNGQPENNYKTTPPVLDSDGSFFLYSKLTVDKSRWQEGNVFSCSVMHEALHNHYTQKSLSLSLG | no binding (tested: 10 µg/mL) | no binding (tested: 10 µg/mL) | 3.15 | 0.0154 µg/mL | 0.298 µg/mL | 4.35 nM | 0.00111 s⁻¹ | 256000 M⁻¹ s⁻¹ | 0.114 | 0.125
3F11 scFv-Fc (Fc fusion, scFv-Fc dimer) QVQLQQSGAELVKPGASVKMSCKASGYTFAPYNIHWVRQTPGQGLEWIGLIYPDNGDTSYNQKFKAKATLTADKSSSTAYMQLSSLTSEDSAVYYCARGGFDYWGQGTSLTVSSGGGGSGGGGSGGGGSDIVMTQSQKFMSTSVGDRVSVTCKASQNVGTNVAWYQQKPGQSPKALIYSASYRYSGVPDRFTGSGSGTDFTLTISNVQSEDLAEYFCQQHYSTPFTFGSGTKLEIKESKYGPPCPPCPAPEAAGGPSVFLFPPKPKDTLMISRTPEVTCVVVDVSQEDPEVQFNWYVDGVEVHNAKTKPREEQFNSTYRVVSVLTVLHQDWLNGKEYKCKVSNKGLPSSIEKTISKAKGQPREPQVYTLPPSQEEMTKNQVSLTCLVKGFYPSDIAVEWESNGQPENNYKTTPPVLDSDGSFFLYSKLTVDKSRWQEGNVFSCSVMHEALHNHYTQKSLSLSLG | no binding (tested: 10 µg/mL) | no binding (tested: 10 µg/mL) | 3.14 | 0.0156 µg/mL | 0.164 µg/mL | 6.13 nM | 0.00203 s⁻¹ | 331000 M⁻¹ s⁻¹ | 0.086 | 0.093
2B1 scFv-Fc (Fc fusion, scFv-Fc dimer) EVQLQQSGAELVKPGASVKMSCKASGYTFASYNLHWVKQTPGQGLEWIGLIYPENGDTSYNQKFKGKATLTADKSSSTAYIQLSSLTSEDSAVYFCARGGFDYWGQGTSLTVSSGGGGSGGGGSGGGGSDIQMIQSPASLSVSVGETVTITCRASENIYSNLAWYQQKQGKSPQLLVYNAKTLADGVPSRFSGSGSGTQYSLKINSLQPEDFGSYYCQHFWSTPYTFGGGTKLEIKESKYGPPCPPCPAPEAAGGPSVFLFPPKPKDTLMISRTPEVTCVVVDVSQEDPEVQFNWYVDGVEVHNAKTKPREEQFNSTYRVVSVLTVLHQDWLNGKEYKCKVSNKGLPSSIEKTISKAKGQPREPQVYTLPPSQEEMTKNQVSLTCLVKGFYPSDIAVEWESNGQPENNYKTTPPVLDSDGSFFLYSKLTVDKSRWQEGNVFSCSVMHEALHNHYTQKSLSLSLG | no binding (tested: 10 µg/mL) | no binding (tested: 10 µg/mL) | 3 | 0.0276 µg/mL | 0.195 µg/mL | 6.67 nM | 0.00179 s⁻¹ | 268000 M⁻¹ s⁻¹ | 0.098 | 0.103
3A12 scFv-Fc (Fc fusion, scFv-Fc dimer) EVQLQQSGAELVKPGASVKMSCKASGYTFSFYNVHWVRQTPGQGLEWIGLIYPDNGDTSYNQKFKAKATLTADKSSSAAYMQLSSLTSEDSAVYYCARGGFDYWGQGTSLTVSSGGGGSGGGGSGGGGSDIVMTQSHKFMSTSVGDRVNITCKASQDVSTAVAWYQQKPGQSPKLLIYSASYRYSGVPDRFTGSGSGTDFTFTISSVQAEDLAVYYCQQHYSTPYTFGGGTKLEMKESKYGPPCPPCPAPEAAGGPSVFLFPPKPKDTLMISRTPEVTCVVVDVSQEDPEVQFNWYVDGVEVHNAKTKPREEQFNSTYRVVSVLTVLHQDWLNGKEYKCKVSNKGLPSSIEKTISKAKGQPREPQVYTLPPSQEEMTKNQVSLTCLVKGFYPSDIAVEWESNGQPENNYKTTPPVLDSDGSFFLYSKLTVDKSRWQEGNVFSCSVMHEALHNHYTQKSLSLSLG | no binding (tested: 10 µg/mL) | no binding (tested: 10 µg/mL) | 3.27 | 0.0128 µg/mL | 0.292 µg/mL | 2.82 nM | 0.000662 s⁻¹ | 235000 M⁻¹ s⁻¹ | 0.098 | 0.106
2B2 scFv-Fc (Fc fusion, scFv-Fc dimer) QLQLQQSGAELVKPGASVKMSCKASGYTFASYNLHWVKQTPGQGLEWIGLIYPENGDTSYNQKFKDKATLTADKSSTTAYIQLSSLASEDSAVYFCARGGFDYWGQGTTLTVSSGGGGSGGGGSGGGGSDIVMTQSQKFMSTSVGDRVSVTCKASQNVGTNVAWYQQKPGQSPKALIYSASYRYSGVPDRFTGSGSGTDYTLTISSVQAEDLALYYCQQHYSTPYTFGGGTKLELKESKYGPPCPPCPAPEAAGGPSVFLFPPKPKDTLMISRTPEVTCVVVDVSQEDPEVQFNWYVDGVEVHNAKTKPREEQFNSTYRVVSVLTVLHQDWLNGKEYKCKVSNKGLPSSIEKTISKAKGQPREPQVYTLPPSQEEMTKNQVSLTCLVKGFYPSDIAVEWESNGQPENNYKTTPPVLDSDGSFFLYSKLTVDKSRWQEGNVFSCSVMHEALHNHYTQKSLSLSLG | no binding (tested: 10 µg/mL) | no binding (tested: 10 µg/mL) | 3.19 | 0.0216 µg/mL | 0.233 µg/mL | 6.18 nM | 0.00286 s⁻¹ | 462000 M⁻¹ s⁻¹ | 0.113 | 0.093
3C7 scFv-Fc (Fc fusion, scFv-Fc dimer) EIQLQQSGAELVKPGASVKMSCKASGYIFRNYYIHWVKRTPGQGLEWIGAIYPDNGDTSYNQRFKVKATLTADTSSSTAYMQLSSLTSEDSAVYYCARAFTYWGQGTTLTVSSGGGGSGGGGSGGGGSDIQMIQSPASLSASVGETVTITCGASENIYGALNWYQRKQGKSPQLLIYGATNLADGMSSRFSGSGSGRQYSLKISSLHPDDVATYYCQNVLSTPYTFGGGTKLEIKESKYGPPCPPCPAPEAAGGPSVFLFPPKPKDTLMISRTPEVTCVVVDVSQEDPEVQFNWYVDGVEVHNAKTKPREEQFNSTYRVVSVLTVLHQDWLNGKEYKCKVSNKGLPSSIEKTISKAKGQPREPQVYTLPPSQEEMTKNQVSLTCLVKGFYPSDIAVEWESNGQPENNYKTTPPVLDSDGSFFLYSKLTVDKSRWQEGNVFSCSVMHEALHNHYTQKSLSLSLG | no binding (tested: 10 µg/mL) | no binding (tested: 10 µg/mL) | 3.19 | 0.0166 µg/mL | 0.2 µg/mL | 3.99 nM | 0.00114 s⁻¹ | 287000 M⁻¹ s⁻¹ | 0.091 | 0.133
3A3 scFv-Fc (Fc fusion, scFv-Fc dimer) QVQLQQSGAELVKPGASVKMSCKASGYTFTTYNIHWVRQTPGQGLEWIGLIYPDNGDTSYNQKFKAKATLTADKSSSTAYMHLSSLTSEDSAVYYCARGGFDYWGQGTTLTVSSGGGGSGGGGSGGGGSDIVMTQSHKFMSTSVGDRVSITCKASQDVNTDVSWYQQKPGQSPKLLIYSASYRYTGVPTRFTGSGSGTDFTFTISGVQAEDLADYYCQQHYNTPYTFGGGTRLEIKESKYGPPCPPCPAPEAAGGPSVFLFPPKPKDTLMISRTPEVTCVVVDVSQEDPEVQFNWYVDGVEVHNAKTKPREEQFNSTYRVVSVLTVLHQDWLNGKEYKCKVSNKGLPSSIEKTISKAKGQPREPQVYTLPPSQEEMTKNQVSLTCLVKGFYPSDIAVEWESNGQPENNYKTTPPVLDSDGSFFLYSKLTVDKSRWQEGNVFSCSVMHEALHNHYTQKSLSLSLG | no binding (tested: 10 µg/mL) | no binding (tested: 10 µg/mL) | 3.2 | 0.0216 µg/mL | 0.236 µg/mL | 3.71 nM | 0.00133 s⁻¹ | 359000 M⁻¹ s⁻¹ | 0.137 | 0.136
3H6 scFv-Fc (Fc fusion, scFv-Fc dimer) QVQLQQSGAELVKPGASVKMSCKASGYTFSFYNIHWVRQTPGQGLEWIGLIYPDNGDTSYNQKFKAKATLTADKSSSTAYMQLSSLTSEDSAVYYCARGGFDYWGQGTTLTVSSGGGGSGGGGSGGGGSDIQMTQSPASLSASVGETVTITCRASENIYSYLAWYQQKQGKSPQLLVYNAKTLAEGVPSRFSGSGSGTQFSLKINSLQPEDFGSYYCQHHYGTPYTFGGGTKLEMKESKYGPPCPPCPAPEAAGGPSVFLFPPKPKDTLMISRTPEVTCVVVDVSQEDPEVQFNWYVDGVEVHNAKTKPREEQFNSTYRVVSVLTVLHQDWLNGKEYKCKVSNKGLPSSIEKTISKAKGQPREPQVYTLPPSQEEMTKNQVSLTCLVKGFYPSDIAVEWESNGQPENNYKTTPPVLDSDGSFFLYSKLTVDKSRWQEGNVFSCSVMHEALHNHYTQKSLSLSLG | no binding (tested: 10 µg/mL) | no binding (tested: 10 µg/mL) | 3.35 | 0.0128 µg/mL | 0.226 µg/mL | 8.41 nM | 0.00166 s⁻¹ | 198000 M⁻¹ s⁻¹ | 0.093 | 0.157
